Test results taken from patent publication US20190194350A1 (UNIVERSITAT STUTTGART, published 2019).
One block for each binder: values may come before it.

Tests used:
[1] = biological target: T1, HER3 on HER3-expressing tumor cells (human, UniProt P21860 20-1342); assay: flow cytometry, HER3-positive MCF-7 cells; MCF-7 cells
T1 construct: Endogenous HER3 of human tumor cell lines (MCF-7, FaDu, BT474, A431, NCI-N87, A549, SKBR-3, Colo205, HCT-116, A375 and melanoma lines); also called cellular receptor HER3; cell surface expressed HER3

[2] = biological target: T2, HER3-His (HER3 aa 27-599 of the extracellular domain fused C-terminally with a hexahistidyl-tag) (human, UniProt P21860 27-599); assay: sandwich ELISA: coated EGFR-Fc, serial dilution of Db3-43xhu225-Ig, then 300 nM HER3-His detected by anti-His-HRP
T2 construct: also called soluble His-tagged HER3; His-tagged extracellular domain of HER3; not shown: C-terminal hexahistidyl-tag

[3] = biological target: T3, EGFR on tumor cells (human, UniProt P00533 25-1210); assay: flow cytometry, FaDu cells (very high EGFR, low HER3; the filing says binding is most likely through the hu225 moieties); FaDu cells
T3 construct: whole, on cells; also called EGFR on FaDu and SKBR-3 cells

[4] = biological target: T2, HER3-His (HER3 aa 27-599 of the …); assay: ELISA, coated His-tagged HER3 ECD (aa 27-599)
[5] = biological target: T1, HER3 on HER3-expressing tumor cells; assay: flow cytometry, SKBR-3 cells (carry EGFR and HER3; bispecific, number not split between the two targets); SKBR-3 cells (EGFR and HER3 in similar ranges)
[6] = biological target: T3, EGFR on tumor cells; assay: as above
[7] = biological target: T1, HER3 on HER3-expressing tumor cells; assay: flow cytometry, MCF-7 cells; MCF-7 cells
[8] = biological target: T4, HER3 fragment aa 359-643 Fc fusion protein (part of DIII and the entire DIV) (human, UniProt P21860 359-643); assay: ELISA, coated HER3-Fc fragments at 10 µg/ml, anti-human Fab-HRP
T4 construct: not shown: IgG1 Fc part

[9] = biological target: T5, HER3 fragment aa 458-643 Fc fusion protein (part of DIII and the entire DIV) (human, UniProt P21860 458-643); assay: as above
T5 construct: not shown: IgG1 Fc part

[10] = biological target: T6, Fc fusion protein containing HER3 DI-DIII (aa 20-531; lacking DIV) (human, UniProt P21860 20-531); assay: as above
T6 construct: also called DI-DIII Fc; not shown: IgG1 Fc part

[11] = biological target: T7, Fc fusion protein containing HER3 DI-DII and a short part of DIII (aa 20-358) (human, UniProt P21860 20-358); assay: as above
T7 construct: not shown: IgG1 Fc part

[12] = biological target: T8, HER3 DIV-Fc (aa 532-643) (human, UniProt P21860 532-643); assay: as above
T8 construct: not shown: IgG1 Fc part

[13] = biological target: T9, HER3 fragment aa 395-643 Fc fusion protein (part of DIII and the entire DIV) (human, UniProt P21860 395-643); assay: as above
T9 construct: not shown: IgG1 Fc part

[14] = biological target: T1, HER3 on HER3-expressing tumor cells; assay: flow cytometry on BT474 cells, PE-labeled secondary antibody; the small table prints no unit, the axis is Concentration [nM] [panel BT474]
[15] = biological target: T1, HER3 on HER3-expressing tumor cells; assay: flow cytometry on FaDu cells, PE-labeled secondary antibody; the small table prints no unit, the axis is Concentration [nM] [panel FADU]
[16] = biological target: T1, HER3 on HER3-expressing tumor cells; assay: flow cytometry, FaDu cells; FaDu cells
[17] = biological target: T1, HER3 on HER3-expressing tumor cells; assay: flow cytometry, NCI-N87 cells
[18] = biological target: T1, HER3 on HER3-expressing tumor cells; assay: flow cytometry, FaDu cells; FaDu cells; Table 3 experiment, alongside scDb hu225x3-43-Fc
[19] = biological target: T1, HER3 on HER3-expressing tumor cells; assay: flow cytometry, A549 cells
[20] = biological target: T1, HER3 on HER3-expressing tumor cells; assay: flow cytometry, FaDu cells (text; Table 3 prints 0.30)
[21] = biological target: T10, HER3-ECD protein (Homo sapiens (Human), UniProt P21860 20-643); assay: ELISA, immobilized HER3-ECD
T10 construct: also called receptor-ECD protein

[22] = biological target: T1, HER3 on HER3-expressing tumor cells; assay: flow cytometry, BT474 cells
[23] = biological target: T1, HER3 on HER3-expressing tumor cells; assay: flow cytometry, FaDu cells
[24] = biological target: T1, HER3 on HER3-expressing tumor cells; assay: flow cytometry on NCI-N87 cells, PE-labeled secondary antibody; the small table prints no unit, the axis is Concentration [nM] [panel NCI-N87]
[25] = biological target: T1, HER3 on HER3-expressing tumor cells; assay: flow cytometry on A549 cells, PE-labeled secondary antibody; the small table prints no unit, the axis is Concentration [nM] [panel A549]
[26] = biological target: T1, HER3 on HER3-expressing tumor cells; assay: flow cytometry on MCF-7 cells, PE-labeled secondary antibody; the small table prints no unit, the axis is Concentration [nM] [panel MCF7]
[27] = biological target: T2, HER3-His (HER3 aa 27-599 of the …); assay: quartz crystal microbalance (Attana), IgG 3-43 on chip, HER3-his as analyte
[28] = biological target: T11, HER3-Fc fusion protein (Fc fusion protein of the extracellular domain of human HER3, limits not stated at the … (human, UniProt P21860 20-643)); assay: quartz crystal microbalance (Attana), IgG 3-43 on chip, HER3-Fc as analyte
T11 construct: also called wild-type HER3-Fc; human HER3-Fc fusion protein; not shown: human Fc region

[29] = biological target: T1, HER3 on HER3-expressing tumor cells; assay: flow cytometry, SKBR-3 cells; SKBR-3 cells
[30] = biological target: T12, HER3 fragment aa 359-587 Fc fusion protein (human, UniProt P21860 359-587); assay: ELISA, coated HER3-Fc fragments
T12 construct: not shown: IgG1 Fc part

[31] = biological target: T13, HER3 fragment aa 329-550 Fc fusion protein (human, UniProt P21860 329-550); assay: ELISA, coated HER3-Fc fragments
T13 construct: not shown: IgG1 Fc part

[32] = biological target: T14, HER3 fragment aa 20-550 Fc fusion protein (DI-III plus part of DIV) (human, UniProt P21860 20-550); assay: ELISA, coated HER3-Fc fragments
T14 construct: not shown: IgG1 Fc part

[33] = biological target: T11, HER3-Fc fusion protein (Fc fusion …); assay: quartz crystal microbalance (Attana), IgG 3-43 on chip, HER3-Fc as analyte (bivalent)
[34] = biological target: T1, HER3 on HER3-expressing tumor cells; assay: flow cytometry, A431 cells
[35] = biological target: T15, mouse HER3-Fc fusion protein (extracellular region of mouse HER3 fused to a human Fc region) (mouse, UniProt Q61526 20-641); assay: ELISA, coated mouse HER3-Fc, serial dilution of IgG 3-43, absorption at 450 nm
T15 construct: extracellular domain; not shown: human Fc region
T15 sequence (Q61526 20-641): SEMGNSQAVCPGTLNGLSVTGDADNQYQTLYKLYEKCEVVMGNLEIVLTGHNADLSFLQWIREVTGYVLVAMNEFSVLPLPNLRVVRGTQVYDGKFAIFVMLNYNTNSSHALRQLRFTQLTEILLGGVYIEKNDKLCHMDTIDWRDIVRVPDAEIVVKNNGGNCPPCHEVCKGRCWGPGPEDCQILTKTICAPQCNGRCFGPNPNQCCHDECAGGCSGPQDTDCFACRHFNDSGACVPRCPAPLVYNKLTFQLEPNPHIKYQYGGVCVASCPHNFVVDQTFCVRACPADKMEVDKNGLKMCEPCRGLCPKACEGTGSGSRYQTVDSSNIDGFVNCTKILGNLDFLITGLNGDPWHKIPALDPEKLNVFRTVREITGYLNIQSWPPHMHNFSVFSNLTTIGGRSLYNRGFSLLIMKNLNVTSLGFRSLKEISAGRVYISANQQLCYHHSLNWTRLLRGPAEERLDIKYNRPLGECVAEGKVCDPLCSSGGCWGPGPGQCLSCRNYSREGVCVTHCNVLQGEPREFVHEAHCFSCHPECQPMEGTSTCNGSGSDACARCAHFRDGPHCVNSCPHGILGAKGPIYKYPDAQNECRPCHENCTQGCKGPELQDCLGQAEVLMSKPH

[36] = biological target: T1, HER3 on HER3-expressing tumor cells; assay: flow cytometry on A431 cells, PE-labeled secondary antibody; the small table prints no unit, the axis is Concentration [nM] [panel A431]
[37] = biological target: T1, HER3 on HER3-expressing tumor cells; assay: flow cytometry, MCF-7 cells

EC50 [1]: 0.054 nM
EC50 [2]: 0.85 nM
EC50 [3]: 0.14 nM
EC50 [4]: 0.26 nM
EC50 [5]: 0.047 nM
EC50 [6]: 0.047 nM
B1: Db3-43xhu225-Ig (bispecific antibody, human IgG1, kappa)
light: QVQLQQSGPGLVKPSQTLSLTCAISGDSVSSNRAAWNWIRQSPSRGLEWLGRTYYRSKWYNDYAQSLKSRITINPDTPKNQFSLQLNSVTPEDTAVYYCARDGQLGLDALDIWGQGTMVTVSSGGGGSDIQLTQSPSFLSASVGDRVTITCRASQSIGTNIHWYQQKPGKAPKLLIKYASESISGVPSRFSGSGSGTEFTLTISSLQPEDFATYYCQQNNNWPTTFGAGTKLEIKRTVAAPSVFIFPPSDEQLKSGTASVVCLLNNFYPREAKVQWKVDNALQSGNSQESVTEQDSKDSTYSLSSTLTLSKADYEKHKVYACEVTHQGLSSPVTKSFNRGEC
heavy: EVQLVESGGGLVQPGGSLRLSCAASGFSLTNYGVHWVRQAPGKGLEWLGVIWSGGNTDYNTPFTSRFTISRDNSKNTLYLQMNSLRAEDTAVYYCARALTYYDYEFAYWGQGTTVTVSSGGGGSQAGLTQPPAVSVAPGQTASITCGRDNIGSRSVHWYQQKPGQAPVLVVYDDSDRPAGIPERFSGSNYENTATLTISRVEAGDEADYYCQVWGITSDHVVFGGGTKLTVLASTKGPSVFPLAPSSKSTSGGTAALGCLVKDYFPEPVTVSWNSGALTSGVHTFPAVLQSSGLYSLSSVVTVPSSSLGTQTYICNVNHKPSNTKVDKKVEPKSCDKTHTCPPCPAPPVAGPSVFLFPPKPKDTLMISRTPEVTCVVVDVSHEDPEVKFNWYVDGVEVHNAKTKPREEQYNSTYRVVSVLTVLHQDWLNGKEYKCKVSNKGLPSSIEKTISKAKGQPREPQVYTLPPSRDELTKNQVSLTCLVKGFYPSDIAVEWESNGQPENNYKTTPPVLDSDGSFFLYSKLTVDKSRWQQGNVFSCSVMHEALHNHYTQKSLSLSPGK
notes: Light chain VH3-43xVLhu225-CL, heavy chain VHhu225xVLhu3-43-CH1-CH2-CH3; two sites for EGFR and two for HER3; also called Db-Ig; bispecific and tetravalent diabody-Ig fusion protein

EC50 [7]: 0.021 nM
binding result [8]: no binding
binding result [9]: no binding
binding result [10]: no binding
binding result [11]: no binding
binding result [12]: no binding
binding result [13]: no binding
EC50 [14]: 0.0743 nM
EC50 [15]: 0.0302 nM
EC50 [16]: 0.003 nM
EC50 [17]: 0.027 nM
EC50 [18]: 0.3 nM
EC50 [19]: 0.053 nM
EC50 [20]: 0.006 nM
EC50 [21]: 0.33 nM
EC50 [22]: 0.074 nM
EC50 [23]: 0.03 nM
EC50 [24]: 0.0266 nM
EC50 [25]: 0.0536 nM
EC50 [26]: 0.0365 nM
koff [27]: 0.00696 s⁻¹
kon [27]: 622000 M⁻¹ s⁻¹
koff [28]: 0.000103 s⁻¹
kon [28]: 468000 M⁻¹ s⁻¹
EC50 [29]: 0.022 nM
binding result [30]: no binding
binding result [31]: no binding
binding result [32]: no binding
Kd [33]: 0.22 nM
EC50 [34]: 0.045 nM
EC50 (read off the curve) [35]: ~3 nM
EC50 [36]: 0.0445 nM
EC50 [37]: 0.037 nM
B2: IgG 3-43 (antibody)
heavy: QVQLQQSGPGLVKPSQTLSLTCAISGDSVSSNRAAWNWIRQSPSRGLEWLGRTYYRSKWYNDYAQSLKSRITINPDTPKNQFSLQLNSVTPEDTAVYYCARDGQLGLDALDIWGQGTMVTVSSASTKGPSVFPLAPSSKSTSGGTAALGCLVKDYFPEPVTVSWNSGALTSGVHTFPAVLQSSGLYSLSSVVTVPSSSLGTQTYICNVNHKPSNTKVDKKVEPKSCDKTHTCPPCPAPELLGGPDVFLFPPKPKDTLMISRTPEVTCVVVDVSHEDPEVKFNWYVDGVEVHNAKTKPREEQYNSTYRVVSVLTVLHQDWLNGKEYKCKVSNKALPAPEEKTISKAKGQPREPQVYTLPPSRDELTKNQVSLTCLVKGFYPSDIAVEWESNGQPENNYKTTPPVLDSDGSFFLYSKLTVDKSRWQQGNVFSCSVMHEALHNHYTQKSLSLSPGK
light: QAGLTQPPAVSVAPGQTASITCGRDNIGSRSVHWYQQKPGQAPVLVVYDDSDRPAGIPERFSGSNYENTATLTISRVEAGDEADYYCQVWGITSDHVVFGGGTKLTVLCGQPKAAPSVTLFPPSSEELQANKATLVCLISDFYPGAVTVAWKADSSPVKAGVETTTPSKQSNNKYAASSYLSLTPEQWKSHRSYSCQVTHEGSTVEKTVAPTECS
notes: also called 3-43-IgG; 3-43 IgG
